Experimental data as given in paper PMC9482650, “Quantitative fragmentomics allow affinity mapping of interactomes” (Nature Communications, 2022).

What was measured:
Assay in all cases: holdup assay
Set-up in all cases: key: below the threshold = too weak to quantify, mostly under pKd 3.1 to 4
APBA2_1, Q99767 = biological target: T1, APBA2_1, Q99767
T1 sequence (Q99767 563-664, limits assumed, looked up): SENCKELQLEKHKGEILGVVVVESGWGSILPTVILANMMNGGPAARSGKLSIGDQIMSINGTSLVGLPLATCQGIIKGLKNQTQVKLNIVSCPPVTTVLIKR

APBA2_2, Q99767 = biological target: T2, APBA2_2, Q99767
T2 sequence (Q99767 654-744, limits assumed, looked up): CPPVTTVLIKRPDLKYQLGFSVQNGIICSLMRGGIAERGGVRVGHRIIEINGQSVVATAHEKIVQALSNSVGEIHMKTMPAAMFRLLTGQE

ARHGEF12, Q9NZN5-2 = biological target: ARHGEF12, Q9NZN5-2
Chain of ARHGEF12, Q9NZN5-2 (Q9NZN5 other isoform, or with tags, fused parts or gaps): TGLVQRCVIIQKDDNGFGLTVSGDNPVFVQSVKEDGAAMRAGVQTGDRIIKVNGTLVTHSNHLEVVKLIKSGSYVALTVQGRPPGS

DFNB31_1, Q9P202 = biological target: T3, DFNB31_1, Q9P202
T3 sequence (Q9P202 135-233, limits assumed, looked up): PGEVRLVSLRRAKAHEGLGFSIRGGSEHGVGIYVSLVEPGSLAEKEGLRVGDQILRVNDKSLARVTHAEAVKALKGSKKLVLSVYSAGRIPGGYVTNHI

DLG3_1, Q92796 = biological target: T4, DLG3_1, Q92796
T4 sequence (Q92796 125-227, limits assumed, looked up): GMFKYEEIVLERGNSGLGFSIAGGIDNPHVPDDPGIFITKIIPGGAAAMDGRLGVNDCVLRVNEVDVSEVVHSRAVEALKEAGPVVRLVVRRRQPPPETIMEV

DLG4_1, P78352 = biological target: DLG4_1, P78352
Chain of DLG4_1, P78352 (P78352 62-152): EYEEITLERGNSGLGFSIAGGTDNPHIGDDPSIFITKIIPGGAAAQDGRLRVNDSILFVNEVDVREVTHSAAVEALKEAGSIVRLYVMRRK

DLG4_2, P78352 = biological target: DLG4_2, P78352
Chain of DLG4_2, P78352 (P78352 155-259): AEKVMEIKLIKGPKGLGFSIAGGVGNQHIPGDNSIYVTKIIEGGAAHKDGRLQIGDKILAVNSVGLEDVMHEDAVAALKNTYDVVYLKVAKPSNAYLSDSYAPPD

DVL3, Q92997 = biological target: T5, DVL3, Q92997
T5 sequence (Q92997 244-331, limits assumed, looked up): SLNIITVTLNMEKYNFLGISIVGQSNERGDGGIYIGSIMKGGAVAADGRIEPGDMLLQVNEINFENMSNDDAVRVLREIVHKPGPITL

GRIP2_4, Q9C0E4 = biological target: GRIP2_4, Q9C0E4
Chain of GRIP2_4, Q9C0E4 (Q9C0E4 446-548): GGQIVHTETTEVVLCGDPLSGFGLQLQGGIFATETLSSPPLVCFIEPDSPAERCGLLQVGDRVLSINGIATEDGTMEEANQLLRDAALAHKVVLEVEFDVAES

GRIP2_5, Q9C0E4 = biological target: GRIP2_5, Q9C0E4
Chain of GRIP2_5, Q9C0E4 (Q9C0E4 544-642): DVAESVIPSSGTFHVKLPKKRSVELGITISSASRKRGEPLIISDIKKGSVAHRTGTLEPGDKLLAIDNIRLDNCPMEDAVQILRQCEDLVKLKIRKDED

HTRA2, O43464 = biological target: HTRA2, O43464
Chain of HTRA2, O43464 (O43464 355-458): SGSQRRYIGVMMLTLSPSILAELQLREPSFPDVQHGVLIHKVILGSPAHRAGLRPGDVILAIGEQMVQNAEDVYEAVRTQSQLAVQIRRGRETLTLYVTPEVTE

IL16_1, Q14005 = biological target: IL16_1, Q14005
Chain of IL16_1, Q14005 (Q14005 210-306): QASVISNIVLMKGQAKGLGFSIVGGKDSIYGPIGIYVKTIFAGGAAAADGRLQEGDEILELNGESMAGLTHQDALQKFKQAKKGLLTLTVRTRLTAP

Inadl_9, Q8NI35 = biological target: Inadl_9, Q8NI35
Chain of Inadl_9, Q8NI35 (Q8NI35 1530-1615): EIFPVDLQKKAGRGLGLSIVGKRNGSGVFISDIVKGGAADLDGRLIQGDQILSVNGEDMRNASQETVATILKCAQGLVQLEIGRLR

MAGI1_2, Q96QZ7 = biological target: MAGI1_2, Q96QZ7
Chain of MAGI1_2, Q96QZ7 (Q96QZ7 456-580): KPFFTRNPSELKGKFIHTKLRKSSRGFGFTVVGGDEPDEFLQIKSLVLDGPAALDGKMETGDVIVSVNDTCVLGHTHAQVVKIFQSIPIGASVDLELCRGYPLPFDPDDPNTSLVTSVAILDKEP

MAGI2_4, Q86UL8 = biological target: MAGI2_4, Q86UL8
Chain of MAGI2_4, Q86UL8 (Q86UL8 772-865): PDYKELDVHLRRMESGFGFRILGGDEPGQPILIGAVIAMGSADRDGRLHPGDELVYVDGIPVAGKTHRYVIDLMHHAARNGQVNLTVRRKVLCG

MAST2, Q6P0Q8 = biological target: MAST2, Q6P0Q8
Chain of MAST2, Q6P0Q8 (Q6P0Q8 1099-1202): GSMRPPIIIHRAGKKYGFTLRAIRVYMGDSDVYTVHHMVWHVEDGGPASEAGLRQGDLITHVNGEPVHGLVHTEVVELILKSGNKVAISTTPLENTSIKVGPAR

NHERF3_4, Q5T2W1 = biological target: T6, NHERF3_4, Q5T2W1
T6 sequence (Q5T2W1 373-468, limits assumed, looked up): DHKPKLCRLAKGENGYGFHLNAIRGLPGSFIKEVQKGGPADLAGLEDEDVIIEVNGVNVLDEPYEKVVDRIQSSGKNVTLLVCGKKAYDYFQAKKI

PDLIM1, O00151 = biological target: PDLIM1, O00151
Chain of PDLIM1, O00151 (O00151 1-87): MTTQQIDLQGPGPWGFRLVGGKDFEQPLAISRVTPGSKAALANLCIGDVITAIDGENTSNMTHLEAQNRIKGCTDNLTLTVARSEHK

PDZD7_3, Q9H5P4 = biological target: T7, PDZD7_3, Q9H5P4
T7 sequence (Q9H5P4 857-944, limits assumed, looked up): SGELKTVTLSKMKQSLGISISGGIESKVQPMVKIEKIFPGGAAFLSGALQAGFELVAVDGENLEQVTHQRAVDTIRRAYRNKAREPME

PTPN13_1, Q12923 = biological target: T8, PTPN13_1, Q12923
T8 sequence (Q12923 1088-1188, limits assumed, looked up): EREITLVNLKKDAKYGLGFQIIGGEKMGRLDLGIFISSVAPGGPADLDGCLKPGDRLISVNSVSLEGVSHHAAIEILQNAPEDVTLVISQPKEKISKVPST

PTPN3, P26045 = biological target: PTPN3, P26045
Chain of PTPN3, P26045 (P26045 505-587): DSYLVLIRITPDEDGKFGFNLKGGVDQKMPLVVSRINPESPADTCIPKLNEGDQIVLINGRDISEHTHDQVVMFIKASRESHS

SHANK1, Q9Y566 = biological target: T9, SHANK1, Q9Y566
T9 sequence (Q9Y566 658-767, limits assumed, looked up): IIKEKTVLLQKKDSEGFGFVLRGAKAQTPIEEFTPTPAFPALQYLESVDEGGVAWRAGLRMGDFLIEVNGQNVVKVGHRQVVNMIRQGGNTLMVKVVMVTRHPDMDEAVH

SIPA1L2, Q9P2F8 = biological target: T10, SIPA1L2, Q9P2F8
T10 sequence (Q9P2F8 945-1036, limits assumed, looked up): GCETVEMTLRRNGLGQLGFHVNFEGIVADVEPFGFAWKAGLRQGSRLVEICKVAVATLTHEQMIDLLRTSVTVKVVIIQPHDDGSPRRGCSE

SNTA1, Q13424 = biological target: T11, SNTA1, Q13424
T11 sequence (Q13424 82-180, limits assumed, looked up): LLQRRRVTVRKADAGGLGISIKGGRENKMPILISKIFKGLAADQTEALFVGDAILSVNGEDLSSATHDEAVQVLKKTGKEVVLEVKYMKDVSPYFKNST

TJP1_2, Q07157 = biological target: TJP1_2, Q07157
Chain of TJP1_2, Q07157 (Q07157 181-274): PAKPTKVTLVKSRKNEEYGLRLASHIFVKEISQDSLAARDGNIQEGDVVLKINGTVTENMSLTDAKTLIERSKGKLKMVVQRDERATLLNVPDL

TJP1_3, Q07157 = biological target: TJP1_3, Q07157
Chain of TJP1_3, Q07157 (Q07157 416-512): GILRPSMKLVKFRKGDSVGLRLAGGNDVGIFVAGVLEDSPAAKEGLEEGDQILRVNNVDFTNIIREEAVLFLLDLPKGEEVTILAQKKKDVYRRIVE

[1] = plain residues with an end cap or a label only (N-terminal biotin on a linker: ttds)
[2] = plain residues with an end cap or a label only (N-terminal biotin on a linker: ahx)
[3] = plain residues with an end cap or a label only (N-terminal biotin on a linker: ado-ado)

NPDALPETLV [ARHGAP6, O43182]
pKd (APBA2_1, Q99767; [1]): below the threshold
pKd (APBA2_2, Q99767; [1]): below the threshold
pKd (ARHGEF12, Q9NZN5-2; [1]): 3.85
pKd (DFNB31_1, Q9P202; [1]): 4.1
pKd (DLG3_1, Q92796; [1]): below the threshold
pKd (DLG4_1, P78352; [1]): 4.13
pKd (DLG4_2, P78352; [1]): 4.42
pKd (DVL3, Q92997; [1]): below the threshold
pKd (GRIP2_4, Q9C0E4; [1]): below the threshold
pKd (GRIP2_5, Q9C0E4; [1]): below the threshold
pKd (HTRA2, O43464; [1]): below the threshold
pKd (IL16_1, Q14005; [1]): 3.87
pKd (Inadl_9, Q8NI35; [1]): 3.98
pKd (MAGI1_2, Q96QZ7; [1]): below the threshold
pKd (MAGI2_4, Q86UL8; [1]): 4.42
pKd (MAST2, Q6P0Q8; [1]): 4.65
pKd (NHERF3_4, Q5T2W1; [1]): below the threshold
pKd (PDLIM1, O00151; [1]): below the threshold
pKd (PDZD7_3, Q9H5P4; [1]): 5.61
pKd (PTPN13_1, Q12923; [1]): below the threshold
pKd (PTPN3, P26045; [1]): 4.44
pKd (SHANK1, Q9Y566; [1]): below the threshold
pKd (SIPA1L2, Q9P2F8; [1]): below the threshold
pKd (SNTA1, Q13424; [1]): 5.05
pKd (TJP1_2, Q07157; [1]): below the threshold
pKd (TJP1_3, Q07157; [1]): below the threshold

GRLLGLETNV [ARHGEF26, Q96DR7]
pKd (APBA2_1, Q99767; [1]): below the threshold
pKd (APBA2_2, Q99767; [1]): below the threshold
pKd (ARHGEF12, Q9NZN5-2; [1]): below the threshold
pKd (DFNB31_1, Q9P202; [1]): 3.91
pKd (DLG3_1, Q92796; [1]): 4.13
pKd (DLG4_1, P78352; [1]): 4.68
pKd (DLG4_2, P78352; [1]): 4.85
pKd (DVL3, Q92997; [1]): below the threshold
pKd (GRIP2_4, Q9C0E4; [1]): below the threshold
pKd (GRIP2_5, Q9C0E4; [1]): below the threshold
pKd (HTRA2, O43464; [1]): below the threshold
pKd (IL16_1, Q14005; [1]): 3.78
pKd (Inadl_9, Q8NI35; [1]): below the threshold
pKd (MAGI1_2, Q96QZ7; [1]): 3.65
pKd (MAGI2_4, Q86UL8; [1]): 4.02
pKd (MAST2, Q6P0Q8; [1]): 5.35
pKd (NHERF3_4, Q5T2W1; [1]): below the threshold
pKd (PDLIM1, O00151; [1]): below the threshold
pKd (PDZD7_3, Q9H5P4; [1]): 4.11
pKd (PTPN13_1, Q12923; [1]): below the threshold
pKd (PTPN3, P26045; [1]): 4.69
pKd (SHANK1, Q9Y566; [1]): below the threshold
pKd (SIPA1L2, Q9P2F8; [1]): below the threshold
pKd (SNTA1, Q13424; [1]): 4.7
pKd (TJP1_2, Q07157; [1]): below the threshold
pKd (TJP1_3, Q07157; [1]): below the threshold

QRPYRRESEI [KCNJ12, Q14500]
pKd (APBA2_1, Q99767; [1]): below the threshold
pKd (APBA2_2, Q99767; [1]): below the threshold
pKd (ARHGEF12, Q9NZN5-2; [1]): 3.65
pKd (DFNB31_1, Q9P202; [1]): 4.02
pKd (DLG3_1, Q92796; [1]): below the threshold
pKd (DLG4_1, P78352; [1]): 4.22
pKd (DLG4_2, P78352; [1]): 4.56
pKd (DVL3, Q92997; [1]): below the threshold
pKd (GRIP2_4, Q9C0E4; [1]): below the threshold
pKd (GRIP2_5, Q9C0E4; [1]): below the threshold
pKd (HTRA2, O43464; [1]): below the threshold
pKd (IL16_1, Q14005; [1]): below the threshold
pKd (Inadl_9, Q8NI35; [1]): below the threshold
pKd (MAGI1_2, Q96QZ7; [1]): 4
pKd (MAGI2_4, Q86UL8; [1]): below the threshold
pKd (MAST2, Q6P0Q8; [1]): 4.42
pKd (NHERF3_4, Q5T2W1; [1]): below the threshold
pKd (PDLIM1, O00151; [1]): below the threshold
pKd (PDZD7_3, Q9H5P4; [1]): 4.57
pKd (PTPN13_1, Q12923; [1]): below the threshold
pKd (PTPN3, P26045; [1]): 4.65
pKd (SHANK1, Q9Y566; [1]): below the threshold
pKd (SIPA1L2, Q9P2F8; [1]): below the threshold
pKd (SNTA1, Q13424; [1]): 3.97
pKd (TJP1_2, Q07157; [1]): below the threshold
pKd (TJP1_3, Q07157; [1]): below the threshold

AKPQPVDSWV [ARVCF, O00192]
pKd (APBA2_1, Q99767; [2]): below the threshold
pKd (APBA2_2, Q99767; [2]): below the threshold
pKd (ARHGEF12, Q9NZN5-2; [2]): below the threshold
pKd (DFNB31_1, Q9P202; [2]): 4.28
pKd (DLG3_1, Q92796; [2]): 4.09
pKd (DLG4_1, P78352; [2]): 4.2
pKd (DLG4_2, P78352; [2]): 4.81
pKd (DVL3, Q92997; [2]): 3.96
pKd (GRIP2_4, Q9C0E4; [2]): below the threshold
pKd (GRIP2_5, Q9C0E4; [2]): below the threshold
pKd (HTRA2, O43464; [2]): 3.68
pKd (IL16_1, Q14005; [2]): 4.1
pKd (Inadl_9, Q8NI35; [2]): 3.74
pKd (MAGI1_2, Q96QZ7; [2]): below the threshold
pKd (MAGI2_4, Q86UL8; [2]): 4.12
pKd (MAST2, Q6P0Q8; [2]): 3.86
pKd (NHERF3_4, Q5T2W1; [2]): below the threshold
pKd (PDLIM1, O00151; [2]): 3.55
pKd (PDZD7_3, Q9H5P4; [2]): 3.53
pKd (PTPN13_1, Q12923; [2]): below the threshold
pKd (PTPN3, P26045; [2]): 4.94
pKd (SHANK1, Q9Y566; [2]): below the threshold
pKd (SIPA1L2, Q9P2F8; [2]): below the threshold
pKd (SNTA1, Q13424; [2]): below the threshold
pKd (TJP1_2, Q07157; [2]): below the threshold
pKd (TJP1_3, Q07157; [2]): 3.62

PDSYHRRDFW [U2AF2, P26368]
pKd (APBA2_1, Q99767; [3]): below the threshold
pKd (APBA2_2, Q99767; [3]): below the threshold
pKd (ARHGEF12, Q9NZN5-2; [3]): 3.52
pKd (DFNB31_1, Q9P202; [3]): 3.57
pKd (DLG3_1, Q92796; [3]): below the threshold
pKd (DLG4_1, P78352; [3]): 3.62
pKd (DLG4_2, P78352; [3]): below the threshold
pKd (DVL3, Q92997; [3]): below the threshold
pKd (GRIP2_4, Q9C0E4; [3]): below the threshold
pKd (GRIP2_5, Q9C0E4; [3]): below the threshold
pKd (HTRA2, O43464; [3]): below the threshold
pKd (IL16_1, Q14005; [3]): below the threshold
pKd (Inadl_9, Q8NI35; [3]): below the threshold
pKd (MAGI1_2, Q96QZ7; [3]): below the threshold
pKd (MAGI2_4, Q86UL8; [3]): 3.54
pKd (MAST2, Q6P0Q8; [3]): below the threshold
pKd (NHERF3_4, Q5T2W1; [3]): below the threshold
pKd (PDLIM1, O00151; [3]): below the threshold
pKd (PDZD7_3, Q9H5P4; [3]): below the threshold
pKd (PTPN13_1, Q12923; [3]): below the threshold
pKd (PTPN3, P26045; [3]): below the threshold
pKd (SHANK1, Q9Y566; [3]): below the threshold
pKd (SIPA1L2, Q9P2F8; [3]): below the threshold
pKd (SNTA1, Q13424; [3]): below the threshold
pKd (TJP1_2, Q07157; [3]): 3.72
pKd (TJP1_3, Q07157; [3]): below the threshold
